Target: human CEACAM5 on cells (MKN45, BxPC-3, Ls174T, HCT116-huCEACAM5) (human) (UniProt P06731)
Test: flow cytometry on BxPC-3 cells (medium, 60,000 receptors/cell)

Chain of human CEACAM5 on cells (MKN45, BxPC-3, Ls174T, HCT116-huCEACAM5) (human) (P06731 35-685 T210S limits assumed): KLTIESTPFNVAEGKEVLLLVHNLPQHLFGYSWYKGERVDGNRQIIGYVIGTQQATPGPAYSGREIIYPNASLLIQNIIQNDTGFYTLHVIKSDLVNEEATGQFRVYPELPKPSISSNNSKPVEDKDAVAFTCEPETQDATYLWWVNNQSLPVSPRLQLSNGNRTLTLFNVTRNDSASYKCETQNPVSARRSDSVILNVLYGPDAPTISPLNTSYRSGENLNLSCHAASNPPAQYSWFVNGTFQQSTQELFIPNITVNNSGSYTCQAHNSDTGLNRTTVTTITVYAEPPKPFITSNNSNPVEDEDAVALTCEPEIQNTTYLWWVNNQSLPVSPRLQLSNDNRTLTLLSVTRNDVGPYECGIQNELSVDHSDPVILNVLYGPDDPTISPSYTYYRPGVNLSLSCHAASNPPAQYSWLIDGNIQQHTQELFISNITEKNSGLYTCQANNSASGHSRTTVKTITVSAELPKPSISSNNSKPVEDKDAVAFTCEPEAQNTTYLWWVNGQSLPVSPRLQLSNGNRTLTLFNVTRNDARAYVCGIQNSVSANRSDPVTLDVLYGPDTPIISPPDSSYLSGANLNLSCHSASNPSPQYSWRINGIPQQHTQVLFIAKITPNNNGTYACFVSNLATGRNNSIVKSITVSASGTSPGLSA

Substance: mAb Control 3 (antibody)
- EC50 (read off the curve): 8 nM
